Seven molecules from paper doi:10.1101/2022.12.01.518327 (bioRxiv, 2022) can be followed below.

Residue numbers refer to the chain shown, from its start. Numbers in names are those of the source.

The target of assay [1] is T1, mouse LEP-R extracellular domain (mLEP-RECD) (mouse, UniProt P48356 22-839).
T1 sequence (looked up): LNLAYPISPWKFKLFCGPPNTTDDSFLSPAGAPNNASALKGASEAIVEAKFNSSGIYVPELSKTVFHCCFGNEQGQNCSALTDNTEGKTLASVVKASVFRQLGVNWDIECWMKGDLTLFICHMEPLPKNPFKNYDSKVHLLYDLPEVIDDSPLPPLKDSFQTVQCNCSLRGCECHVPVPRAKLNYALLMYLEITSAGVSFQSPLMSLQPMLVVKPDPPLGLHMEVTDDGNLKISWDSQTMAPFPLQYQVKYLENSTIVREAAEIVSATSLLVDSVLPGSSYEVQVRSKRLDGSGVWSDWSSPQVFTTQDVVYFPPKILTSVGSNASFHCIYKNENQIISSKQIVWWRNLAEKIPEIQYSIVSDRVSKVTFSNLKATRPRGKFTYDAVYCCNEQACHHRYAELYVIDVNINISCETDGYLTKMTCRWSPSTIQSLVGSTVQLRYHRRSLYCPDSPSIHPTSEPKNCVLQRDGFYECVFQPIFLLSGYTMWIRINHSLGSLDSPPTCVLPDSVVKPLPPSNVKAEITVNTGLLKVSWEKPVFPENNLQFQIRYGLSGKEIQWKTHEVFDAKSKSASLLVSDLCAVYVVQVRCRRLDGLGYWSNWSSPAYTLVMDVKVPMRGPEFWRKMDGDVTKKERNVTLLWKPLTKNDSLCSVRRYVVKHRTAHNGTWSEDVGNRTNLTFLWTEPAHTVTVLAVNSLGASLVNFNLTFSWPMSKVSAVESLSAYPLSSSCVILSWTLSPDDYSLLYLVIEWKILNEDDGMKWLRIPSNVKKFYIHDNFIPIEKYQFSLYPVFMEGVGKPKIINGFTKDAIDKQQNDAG
The experiment in a line: SEC-MALLS.

Assay [2] addresses T2, human LEP-R extracellular domain (hLEP-RECD), glycosylated (human, UniProt P48357 22-839).
T2 sequence (looked up): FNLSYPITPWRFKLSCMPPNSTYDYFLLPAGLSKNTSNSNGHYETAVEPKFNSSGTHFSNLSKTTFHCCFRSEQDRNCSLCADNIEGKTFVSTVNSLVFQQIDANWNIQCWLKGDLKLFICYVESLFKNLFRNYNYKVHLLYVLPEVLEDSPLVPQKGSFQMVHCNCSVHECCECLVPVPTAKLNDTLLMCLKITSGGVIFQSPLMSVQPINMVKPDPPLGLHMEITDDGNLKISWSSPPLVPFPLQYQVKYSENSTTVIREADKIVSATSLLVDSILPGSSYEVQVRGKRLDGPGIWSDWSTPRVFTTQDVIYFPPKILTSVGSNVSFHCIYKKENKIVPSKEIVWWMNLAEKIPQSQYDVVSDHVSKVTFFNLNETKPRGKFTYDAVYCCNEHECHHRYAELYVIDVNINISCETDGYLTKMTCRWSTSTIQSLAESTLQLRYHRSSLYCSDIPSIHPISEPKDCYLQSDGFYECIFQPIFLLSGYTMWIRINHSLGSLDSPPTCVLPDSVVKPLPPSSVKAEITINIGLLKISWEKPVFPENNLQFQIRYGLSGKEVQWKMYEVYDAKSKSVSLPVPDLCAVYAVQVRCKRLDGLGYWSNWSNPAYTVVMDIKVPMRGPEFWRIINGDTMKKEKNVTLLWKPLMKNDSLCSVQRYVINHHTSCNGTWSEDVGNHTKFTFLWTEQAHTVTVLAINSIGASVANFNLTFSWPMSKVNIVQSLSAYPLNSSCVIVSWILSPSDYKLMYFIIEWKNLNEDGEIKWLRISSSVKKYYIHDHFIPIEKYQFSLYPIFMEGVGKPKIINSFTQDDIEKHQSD
Briefly: SEC-MALLS.

Assay [3] addresses T3, mouse LEP-R Ig-CRH2 fragment, residues 328-633, C602S (mouse, UniProt P48356 328-633, C602S).
T3 sequence (looked up): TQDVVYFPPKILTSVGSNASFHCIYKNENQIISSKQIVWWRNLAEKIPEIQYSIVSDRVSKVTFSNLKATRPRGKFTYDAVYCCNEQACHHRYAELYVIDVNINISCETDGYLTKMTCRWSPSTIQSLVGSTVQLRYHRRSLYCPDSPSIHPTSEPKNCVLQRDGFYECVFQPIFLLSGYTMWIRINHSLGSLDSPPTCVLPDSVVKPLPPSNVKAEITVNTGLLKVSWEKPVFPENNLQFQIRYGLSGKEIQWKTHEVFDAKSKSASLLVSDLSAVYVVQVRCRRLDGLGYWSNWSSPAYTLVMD
Briefly: SEC-MALLS.

For assay [4], the target named is T1, mouse LEP-R extracellular domain …. Briefly: SEC-MALLS + AUC.
For assay [5] the target is unchanged. The experiment in a line: BLI.
Assay [6] addresses T3, mouse LEP-R Ig-CRH2 fragment, residues …. Briefly: crystal structure.
For assay [7], the target named is T1, mouse LEP-R extracellular domain …. The experiment in a line: cryo-EM structure.

B1: murinized human Leptin I85V/M89L/G132D/G139L (ligand, UniProt P41159 22-167, looked up)
chain: VPIQKVQDDTKTLIKTIVTRINDISHTQSVSSKQKVTGLDFIPGLHPILTLSKMDQTLAVYQQVLTSLPSRNVIQISNDLENLRDLLHVLAFSKSCHLPWASGLETLDSLDGVLEASLYSTEVVALSRLQGSLQDMLWQLDLSPGC
In the case of B1, in assay [1], the binding result is given as “binds”.

B2: mouse Leptin (mLeptin), wild type, as used in SEC-MALLS, AUC, BLI (in solution) and on cells (ligand, UniProt P41160 22-167, looked up)
chain: VPIQKVQDDTKTLIKTIVTRINDISHTQSVSAKQRVTGLDFIPGLHPILSLSKMDQTLAVYQQVLTSLPSQNVLQIANDLENLRDLLHLLAFSKSCSLPQTSGLQKPESLDGVLEASLYSTEVVALSRLQGSLQDILQQLDVSPEC
For B2, the binding result in assay [2], in assay [3] and in assay [4] was “binds” in each case.

B3: in vitro biotinylated mouse Leptin (ligand, UniProt P41160 22-167, looked up)
chain: B2 chain
modifications: biotin (NHS-PEG4-biotin, in vitro)
Regarding B3, the binding result in assay [5] was “binds”.

B4: tag-less mouse Leptin refolded from E. coli inclusion bodies (ligand, UniProt P41160 22-167, looked up)
chain: B2 chain
With B4, in assay [6], the binding result was “binds”.

B5: mouse Leptin refolded from E. coli, N-terminal His-tag removed with TEV protease (ligand, UniProt P41160 22-167, looked up)
chain: B2 chain
For the molecule B5, in assay [7], the binding result is given as “binds”.

B6: mouse Leptin a2 antagonist (60LDFI63/AAAA) (ligand, UniProt P41160 22-167, looked up)
chain: B2 chain with L39A, D40A, F41A, I42A
Broadly, the stoichiometry N is a count of units in the complex or per binding partner. Consider B6, for which the “stoichiometry N” value in assay [4] was 1.

B7: Leptin a1 antagonist (141ST142/AA), as used with mLEP-RECD (ligand, UniProt P41160 22-167, looked up)
chain: B2 chain with S120A, T121A
For the molecule B7, the “stoichiometry N” value in assay [4] turned out to be 1.
